# Results as given in paper PMC11110689.
# Biological target: factor inhibiting HIF (FIH), V5-tagged (FIH-V5) (UniProt Q9NWT6)
# Test: immunoblot of a denaturation-resistant (SDS-PAGE) complex; cells co-transfected, 24 h at the indicated oxygen levels (18.5–1% O2), blots quantified, oxygen sensitivity calculated
# Sequence of UniProt Q9NWT6 (Q9NWT6 whole entry): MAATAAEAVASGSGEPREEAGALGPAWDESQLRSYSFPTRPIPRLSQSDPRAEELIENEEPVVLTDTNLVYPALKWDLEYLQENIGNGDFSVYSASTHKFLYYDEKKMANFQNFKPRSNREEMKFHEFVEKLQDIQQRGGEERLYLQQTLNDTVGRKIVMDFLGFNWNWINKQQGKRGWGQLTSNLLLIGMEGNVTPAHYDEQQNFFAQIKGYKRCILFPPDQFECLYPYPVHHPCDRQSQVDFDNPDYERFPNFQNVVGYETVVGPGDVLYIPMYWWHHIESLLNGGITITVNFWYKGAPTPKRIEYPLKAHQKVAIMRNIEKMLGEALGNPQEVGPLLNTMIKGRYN
substance,measurement,value
"NF-κB inhibitor β (IκBβ), FLAG-tagged (IκBβ-FLAG) (from UniProt Q15653 1-356) (natural protein)",EC50 of the oxygen level for oxomer formation,7.6 % O2
